# Reference: US20190365920A1 (INSERM INSTITUT NATIONAL DE LA SANT ET DE LA RECHERCHE …, published 2019)
# T1: SLITRK6 (SLIT and NTRK-like family, member 6) (human, UniProt Q9H5Y7 27-841)
# T1 construct: whole, on cells; Endogenous SLITRK6 at the membrane of A375 BRAF-mutant melanoma cells after treatment with PLX4032, alone or with AZD6244; also called DFNMYP
# T1 sequence (looked up): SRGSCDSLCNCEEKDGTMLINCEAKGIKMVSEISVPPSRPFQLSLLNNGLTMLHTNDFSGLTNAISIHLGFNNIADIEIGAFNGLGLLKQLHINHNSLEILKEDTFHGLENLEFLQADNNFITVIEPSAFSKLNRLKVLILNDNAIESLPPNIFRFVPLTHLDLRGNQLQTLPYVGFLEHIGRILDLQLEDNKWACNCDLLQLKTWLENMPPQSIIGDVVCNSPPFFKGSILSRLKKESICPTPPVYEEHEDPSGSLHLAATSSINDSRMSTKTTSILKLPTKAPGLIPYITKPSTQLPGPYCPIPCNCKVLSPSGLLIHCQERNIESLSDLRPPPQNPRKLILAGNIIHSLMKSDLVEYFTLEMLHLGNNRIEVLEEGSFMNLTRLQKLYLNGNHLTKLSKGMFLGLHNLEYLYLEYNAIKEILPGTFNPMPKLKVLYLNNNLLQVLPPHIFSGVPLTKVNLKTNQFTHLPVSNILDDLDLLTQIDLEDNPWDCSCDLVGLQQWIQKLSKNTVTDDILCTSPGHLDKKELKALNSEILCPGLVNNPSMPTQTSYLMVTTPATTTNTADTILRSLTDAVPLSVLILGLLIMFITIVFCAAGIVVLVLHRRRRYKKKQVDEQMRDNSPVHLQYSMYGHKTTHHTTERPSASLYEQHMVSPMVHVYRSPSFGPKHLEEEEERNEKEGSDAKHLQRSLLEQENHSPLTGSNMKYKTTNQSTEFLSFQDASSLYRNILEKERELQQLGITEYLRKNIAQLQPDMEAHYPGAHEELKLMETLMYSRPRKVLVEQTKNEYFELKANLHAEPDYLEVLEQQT
# B1: Hal5-10acl2 antibody directed against SLITRK6 (antibody, V domains shown)
# VH: QVQLVESGGGVVQPGRSLRLSCAASGFTFSSYGMHWVRQAPGKGLEWVAVIWYDGSNQYYADSVKGRFTISRDNSKNTLFLQMHSLRAEDTAVYYCARGLTSGRYGMDVWGQGTTVTVSS
# VL: DIVMTQSPLSLPVTPGEPASISCRSSQSLLLSHGFNYLDWYLQKPGQSPQLLIYLGSSRASGVPDRFSGSGSGTDFTLKISRVEAEDVGLYYCMQPLQIPWTFGQGTKVEIKR
# notes: It is produced by a CHO cell deposited as ATCC PTA-13102; also called HA15-10acl2; the antibody against SLITRK6
# Target: T1, SLITRK6 (SLIT and NTRK-like family, …)
# Test: immunofluorescence staining of A375 cells (si-Ctl or si-SLITRK6) treated with PLX4032 alone or with AZD6244
binder,measurement,value
B1,binding result,binds
